Test results as given in PMC7116795.

Target: RAD51 (UniProt Q06609 1-339)
Experiment: EMSA

RAD51, sequence (Q06609 whole entry): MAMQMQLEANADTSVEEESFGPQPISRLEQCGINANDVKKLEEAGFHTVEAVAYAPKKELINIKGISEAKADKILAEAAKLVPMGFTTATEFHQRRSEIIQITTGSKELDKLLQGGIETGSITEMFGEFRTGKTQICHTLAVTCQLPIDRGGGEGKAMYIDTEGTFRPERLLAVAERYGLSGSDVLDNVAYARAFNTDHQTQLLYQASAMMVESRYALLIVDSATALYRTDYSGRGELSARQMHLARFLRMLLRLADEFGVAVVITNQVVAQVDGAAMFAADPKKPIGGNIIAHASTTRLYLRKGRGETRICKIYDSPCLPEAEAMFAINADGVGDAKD

With UUAGGGUUAGGGUUAGGGUUAGGGUUAGGGUUAGGGUUAGG (ssRNA) [41mer TERRA] the binding signal was ~3 fold higher affinity than TelDNA (N2).
